B2: Chikungunya/SL-CK1 E2 glycoprotein (natural protein)
chain: not shown

What all share (experiment): SPR
For orientation: SPR reads the build-up and loss of mass on a sensor chip optically.

For assay [1], the target named is B2.
The target of assay [2] is BiNb-2E8 (alpaca).
The target in assay [3] is TriNb-3C5 (alpaca).
Assay [4] deals with BiNb-3C5 (alpaca).
For assay [5], the target named is TriNb-2E8 (alpaca).

koff data for two molecules are collected here from paper PMC9107221 (2022).

The term koff denotes the first-order rate constant of dissociation.

B1: MoNb-3C5 (VHH)
VHH: AVQLVESGGGLVQAGGSLRLSCAASGRSFSAYTMAWFRQAPGKEREWMASIVRSGGPTYYADSVKDRFTISRENARNTAYLQMNSLKPEDTAVYYCAADLGWTYSRSPELFGSWGQGTQVTVSS
In turn, B1 yielded a koff in assay [1] of 0.00991 s⁻¹.

With B2, the koff in assay [2] is 0.000352 s⁻¹; in assay [3] it was 0.00609 s⁻¹; in assay [4] it was 0.00549 s⁻¹; in assay [5], 0.00274 s⁻¹.
